Legend:
Type in all cases: biochemical
[1] = In vitro assays with purified UGTs and an array of cannabinoid substrates; details: purified enzymes
Protocol: (§1) Selected UGT genes from Helichrysum were individually cloned into the pET28b vector and expressed in E. coli BL21 (DE3) cells. Bacterial starters were grown overnight in LB medium at 37° C., diluted in fresh LB 1:100, and re-incubated at 37° C. When cultures reached A600=0.6, protein expression was induced with 400 μM of isopropyl-1-thio-β-d-galactopyranoside (IPTG) overnight at 15° C. Bacterial cells were lysed by sonication in 50 mM Tris-HCl pH 8, 0.5 mM phenylmethylsulfonyl fluoride (PMSF, Sigma Aldrich) solution in isopropanol, 10% glycerol and protease inhibitor cocktail (Sigma Aldrich), and 1 mg ml-1 lysozyme (Sigma Aldrich). The whole-cell extract was either kept for functional activity or used for protein purification. Purification of proteins was performed on Ni-NTA agarose beads (Adar Biotech). The proteins were eluted with 200 mM imidazole (Fluka) in buffer containing 50 mM NaH2PO4, pH 8 and 0.5 M NaCl. Protein concentration of the eluted fractions was measured with Pierce™ 660 nm protein assay reagent (Thermo Scientific).
Recombinant UGT assays using different aromatic substrates were performed by mixing 1.5 μl of the UDP solution (80 mM, final concentration: 2.5 mM), 27.5 μl Tris buffer (100 mM), 1 μl of each of the substrates (50 mM, final concentration: 1 mM) and 20 μl of the lysate enzyme solution. The reactions were incubated at 30° C. for 1 h. To stop the reactions, 50 μl methanol were added to each tube, vortexed for 10 s, centrifuged at maximum speed for 10 min, and then the supernatant was recovered and used for UPLC-qTOF analysis. The assay with the purified UGTs was performed by mixing 2 μl of the cannabinoid acceptors (OA, DHSA, CBGA, heliCBGA, CBDA, A9-THCA, CBCA, olivetol, CBG, CBD or 49-THC, hexanoylphloroglucinol, naringenin chalcone or pinocembrin chalcone) in the presence of 1.5 μl UDP 80 mM, 46.5 μl Tris buffer (100 mM, pH 8.0) and 1 μl of each enzyme. To stop the reactions, 100 μl methanol was added to each tube, and the compounds were extracted and analyzed as previously described. Kinetics assays were performed with the purified enzymes (1.5 μg/μl) dissolved in 45 μl Tris buffer (100 mM, pH 8.0) and substrates were added using varying (0.5 μM-3 mM) and constant (1 mM) concentrations of OA and UDP and the total reaction volume was 50 μl. To stop the reactions, 100 μl methanol was added to each tube, and the compounds were extracted and analyzed as previously described.
Next, the inventors recombinantly expressed eleven of the thirteen UGTs from Helichrysum in E. coli and used the crude lysate to examine the activity of the proteins using OA, CBGA, and heliCBGA in a reaction including UDP-Glc as the sugar donor. […] The inventors screened the LC/HRMS chromatograms for glucosylated and diglucosylated products according to the theoretical m/z values. […] All the enzymes were active with varying substrate specificity and products produced.

[2] = UGT enzyme assay with crude E. coli lysates, UDP-Glc as sugar donor; details: crude lysate, substrates OA, CBGA, heliCBGA, FIG. 8
Protocol: as §1, with “The whole-cell extract was either kept for functional activity or used for protein purification. Purification of proteins was performed on Ni-NTA agarose beads (Adar Biotech). The proteins were eluted with 200 mM imidazole (Fluka) in buffer containing 50 mM NaH2PO4, pH 8 and 0.5 M NaCl.” left out
Recombinant UGT assays using different aromatic substrates were performed by mixing 1.5 μl of the UDP solution (80 mM, final concentration: 2.5 mM), 27.5 μl Tris buffer (100 mM), 1 μl of each of the substrates (50 mM, final concentration: 1 mM) and 20 μl of the lysate enzyme solution. […] To stop the reactions, 100 μl methanol was added to each tube, and the compounds were extracted and analyzed as previously described. […] […]

[3] = Steady state kinetics assays of purified UGTs with OA and UDP; details: OA 0.5 μM-3 mM varying, UDP 1 mM constant; compared HuUGT11, HuUGT13, OsUGT, SrUGT; FIG. 12
Protocol: FIGS. 12A-12B include curves and a table showing comparison of steady state kinetic analysis of HuUGT11 and HuUGT13 versus OsUGT and SrUGT, with olivetolic acid and UDP-glc. (12A) The Michaelis-Menten Km value of each enzyme was calculated using varying (0.5 μM-3 mM) and constant (1 mM) concentrations of olivetolic acid and […] (n=3 technically independent samples; measurements were plotted individually). Since there was no analytical standard available for Glc-OA, V0 was calculated using the calibration curve of OA. (12B) A summary of the results presented in 12A. V0 and Vmax were calculated using the calibration curve of OA since there was no analytical standard available for Glc-OA.
Recombinant UGT assays using different aromatic substrates were performed by mixing 1.5 μl of the UDP solution (80 mM, final concentration: 2.5 mM), 27.5 μl Tris buffer (100 mM), 1 μl of each of the substrates (50 mM, final concentration: 1 mM) and 20 μl of the lysate enzyme solution. The reactions were incubated at 30° C. for 1 h. […] To stop the reactions, 100 μl methanol was added to each tube, and the compounds were extracted and analyzed as previously described. […] To stop the reactions, 100 μl methanol was added to each tube, and the compounds were extracted and analyzed as previously described.

B1: HuUGT6: UDP-glycosyltransferase from Helichrysum umbraculigerum, recombinantly expressed in E. coli (protein, listed as Helichrysum umbraculigerum)
chain: MTQKQMQMQPHFLLVTYPAQGHINPSLQFAERLIRLGVKVTFTTTVSAYRRMSKAGNISEFLNFAAFSDGFDDGFNFETDDHGLFLTQLRSRGKDSLKETILSNAKNGTPISCLVYTLLLPWAPEVARGLNVPSAFLWIQPASVLRLYYYYFNGYNELIGDDCNEPSWSIQLPGLPLLKS
- diglucosylation of acid compounds ([1]; UDP-glc, FIG. 11): only observed in case of HuUGT6

B2: HuUGT13: UDP-glycosyltransferase from Helichrysum umbraculigerum, recombinantly expressed in E. coli (protein, listed as Helichrysum umbraculigerum)
chain: MSLVTNNPHLLVYPLPTSGHIIPLLDLTDLLLRRGLTITVVISTTDLTLLDTLLSSHPTSLHKLYFPDPEIGPSSHPVIARIIATQKLFDPIVKWFESHPSPPVAIISDFFLGWTNELASRLGIRRVVFSPSGALGHSILQSLWRDVAEINAKNVDGNGNYSISFTDIPNSPEFHWWQLSQLLRVHREGDPDFEFFRNGMLANTKSWGIVYNTFERIEKVYIDHVKKQIGHDRVWAIGPLLPEEHGPVGSTARGGSSVVPPHDLLTWLDKKPHDSVVYICFGSRLTLSEKQMSALASALELSNVDFILCVKASGSSFIPSGFEDRVVGRGFVIKGWAPQLAILRHRAVGSFVTHCGWNSTLEGVSSGVMMLTWPMGADQYANAKLLVDQLGVGKRVCEGGPESVPDSTELARLLEESLSGDTSERVKVKELSREANTAVKEGTSIRDLNMFVNLLSEL
- activity on the cannabinoid intermediates [1]: highly active
- activity on the prenylated compounds [1]: almost inactive
- activity of lysates containing HuUGTs on the different substrates [2]: showed activity

B3: HuUGT11: UDP-glycosyltransferase from Helichrysum umbraculigerum, recombinantly expressed in E. coli (protein, listed as Helichrysum umbraculigerum)
chain: MGSLKKGAHILIFPFPAQGHMLPLLDLTHHLATNGLTITILVTPKNLPILNPLLSSSPNIQPLVFPFPPHPRLPPHVENVKDIGNHANVPITNSLAKLQDQIIQWFNSHHNPPVAIISDFFLGWTQHLANKLGIPRVGFFSSGAYLTAVLDYVCHNIKTVRSQEETVFHDLPNSPCFKFEHLPGLAQIYKESDPEWELVLDGHIANGLSWGWIVNTFDGLESRYMEYLTKKMGVGRVFGVGPVNLLNGSDPMTRGKSESGSDSGVLNWLDGKPDGSVLYVCFGSQKFLTNDQMEGLSIGLEQSGVHYVWVVKDEQGDAIRSGSGRGLVVTGWAPQVSILGHGAVGGFLSHCGWNSVLEAIVNGVMILAWPMEADQFVNAKLLVDDHGIGVWVCEGPNTVPDSTELARKIGESMSTDKSEKVKAKEMKNKANEAVKEGGSSSMELSRLVKELSNFETNGP
- catalytic performance in kinetics assays versus the other enzymes [3]: impressive catalytic advantage
- activity on the cannabinoid intermediates [1]: highly active
- activity on the prenylated compounds [1]: almost inactive
- activity of lysates containing HuUGTs on the different substrates [2]: showed activity

Source: patent publication US20250207145A1, “URIDINE DIPHOSPHATE-GLYCOSYLTRANSFERASE AND A […], TISSUE, AND ORGANISM COMPRISING SAME” (YEDA RESEARCH AND DEVELOPMENT CO. LTD., priority 2022, published 2025)
